Here are results for three sequences from the supplement of paper PMC6379048.

Holding throughout (test): EC50 of free RNA motif oligo competing protein binding to immobilised probe
One series deals with T1, HNRNPR (UniProt O43390).
T1 sequence: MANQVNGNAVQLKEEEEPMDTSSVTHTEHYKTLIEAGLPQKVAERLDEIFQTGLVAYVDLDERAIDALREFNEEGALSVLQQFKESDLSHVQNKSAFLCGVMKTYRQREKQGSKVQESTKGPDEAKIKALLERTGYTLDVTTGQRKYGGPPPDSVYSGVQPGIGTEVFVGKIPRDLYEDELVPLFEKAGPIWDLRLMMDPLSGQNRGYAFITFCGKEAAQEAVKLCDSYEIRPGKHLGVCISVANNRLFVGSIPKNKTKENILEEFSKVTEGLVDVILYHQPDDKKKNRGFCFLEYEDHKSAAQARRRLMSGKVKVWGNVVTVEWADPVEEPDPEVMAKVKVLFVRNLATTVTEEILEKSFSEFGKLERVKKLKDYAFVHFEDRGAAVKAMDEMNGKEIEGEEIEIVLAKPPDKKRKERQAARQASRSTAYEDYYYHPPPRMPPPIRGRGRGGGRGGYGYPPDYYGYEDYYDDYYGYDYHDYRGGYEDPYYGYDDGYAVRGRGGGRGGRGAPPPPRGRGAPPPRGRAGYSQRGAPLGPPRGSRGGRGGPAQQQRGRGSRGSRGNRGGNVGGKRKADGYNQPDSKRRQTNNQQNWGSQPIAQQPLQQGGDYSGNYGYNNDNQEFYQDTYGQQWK
The gist of the method: (§1)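 Free RNA oligos (0 nM to 30 μM) competed for 1 h at 4°C in HEK293-FT lysate (2.5 mg protein/well) before a 30 min, 4°C pulldown with the same oligos on NHS-Sepharose beads. Bound proteins were quantified by label-free LC-MS/MS and normalised to the control. Kd was found by multiplying EC50, from a four-parameter log-logistic fit, by a protein-dependent depletion factor.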

In another series the target is P4HA2 (UniProt O15460). The gist of the method: as §1
Chain of P4HA2 (O15460 whole entry): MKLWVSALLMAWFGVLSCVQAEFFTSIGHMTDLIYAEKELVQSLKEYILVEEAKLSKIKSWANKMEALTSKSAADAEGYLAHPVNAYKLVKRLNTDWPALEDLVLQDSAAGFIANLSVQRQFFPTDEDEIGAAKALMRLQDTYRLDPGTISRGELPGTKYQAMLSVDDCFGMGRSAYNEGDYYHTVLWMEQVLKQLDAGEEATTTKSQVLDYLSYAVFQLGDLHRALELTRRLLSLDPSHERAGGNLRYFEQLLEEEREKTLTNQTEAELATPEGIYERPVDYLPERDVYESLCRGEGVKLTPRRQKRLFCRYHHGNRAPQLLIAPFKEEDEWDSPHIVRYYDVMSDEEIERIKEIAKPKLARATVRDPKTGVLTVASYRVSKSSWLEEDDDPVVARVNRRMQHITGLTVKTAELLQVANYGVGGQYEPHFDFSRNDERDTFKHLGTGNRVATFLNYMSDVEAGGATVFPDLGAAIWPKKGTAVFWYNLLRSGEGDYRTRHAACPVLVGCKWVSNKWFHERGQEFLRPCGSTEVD
Another series addresses T2, SF3B2 (UniProt Q13435).
T2 sequence: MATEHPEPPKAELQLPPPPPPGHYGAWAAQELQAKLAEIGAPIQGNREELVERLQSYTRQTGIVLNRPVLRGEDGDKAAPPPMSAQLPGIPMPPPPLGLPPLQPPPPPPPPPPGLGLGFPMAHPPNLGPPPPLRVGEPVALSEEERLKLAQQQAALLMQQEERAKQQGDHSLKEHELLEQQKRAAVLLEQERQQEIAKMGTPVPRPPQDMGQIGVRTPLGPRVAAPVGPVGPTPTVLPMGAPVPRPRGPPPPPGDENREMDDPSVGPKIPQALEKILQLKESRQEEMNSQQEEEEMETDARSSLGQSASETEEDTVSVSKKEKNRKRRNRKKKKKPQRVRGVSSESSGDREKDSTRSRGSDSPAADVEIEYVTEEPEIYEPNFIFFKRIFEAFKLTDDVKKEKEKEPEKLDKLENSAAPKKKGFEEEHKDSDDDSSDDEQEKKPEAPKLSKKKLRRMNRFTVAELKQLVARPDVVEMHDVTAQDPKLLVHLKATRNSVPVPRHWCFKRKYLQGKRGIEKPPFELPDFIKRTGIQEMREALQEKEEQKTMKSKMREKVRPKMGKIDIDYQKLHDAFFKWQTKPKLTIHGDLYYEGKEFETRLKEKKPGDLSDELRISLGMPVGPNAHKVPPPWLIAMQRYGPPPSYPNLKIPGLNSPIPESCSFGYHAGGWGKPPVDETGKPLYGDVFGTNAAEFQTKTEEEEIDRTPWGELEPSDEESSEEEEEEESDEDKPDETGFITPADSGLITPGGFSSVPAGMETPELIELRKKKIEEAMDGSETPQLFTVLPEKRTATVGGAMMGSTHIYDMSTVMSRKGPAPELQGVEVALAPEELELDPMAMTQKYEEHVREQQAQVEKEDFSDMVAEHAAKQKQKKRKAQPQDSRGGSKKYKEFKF
The gist of the method: as §1

In another series the target is MRPL1 (UniProt Q9BYD6). In outline:
as §1

A further series addresses MRPL43 (UniProt Q8N983). The gist of the method: as §1
Another series concerns the target PCBP2 (UniProt Q15366). In outline:
as §1

The next series addresses T3, HNRNPA0 (UniProt Q13151).
T3 sequence: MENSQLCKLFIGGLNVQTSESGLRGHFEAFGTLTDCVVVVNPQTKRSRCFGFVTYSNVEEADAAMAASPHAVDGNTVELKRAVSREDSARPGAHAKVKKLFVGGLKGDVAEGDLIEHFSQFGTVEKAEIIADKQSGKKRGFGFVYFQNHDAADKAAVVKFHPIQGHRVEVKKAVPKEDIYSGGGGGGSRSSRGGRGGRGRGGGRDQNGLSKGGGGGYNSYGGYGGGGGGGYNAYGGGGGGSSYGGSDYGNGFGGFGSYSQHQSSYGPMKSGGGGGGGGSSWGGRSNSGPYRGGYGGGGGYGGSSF
In outline: as §1

The next series has as its target T4, PRPF31 (UniProt Q8WWY3).
T4 sequence: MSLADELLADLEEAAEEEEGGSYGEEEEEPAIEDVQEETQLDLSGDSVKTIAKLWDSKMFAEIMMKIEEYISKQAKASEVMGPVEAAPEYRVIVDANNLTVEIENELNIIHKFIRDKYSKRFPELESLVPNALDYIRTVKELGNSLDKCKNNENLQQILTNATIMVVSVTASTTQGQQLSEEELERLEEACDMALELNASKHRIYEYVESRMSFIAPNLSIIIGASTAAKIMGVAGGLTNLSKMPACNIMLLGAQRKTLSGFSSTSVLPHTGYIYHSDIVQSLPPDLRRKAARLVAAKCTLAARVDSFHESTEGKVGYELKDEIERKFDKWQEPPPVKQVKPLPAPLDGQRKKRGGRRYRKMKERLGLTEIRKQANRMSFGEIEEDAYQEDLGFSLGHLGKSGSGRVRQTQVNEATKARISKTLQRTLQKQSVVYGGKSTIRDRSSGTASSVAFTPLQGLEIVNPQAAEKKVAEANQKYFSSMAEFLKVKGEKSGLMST
The gist of the method: as §1

Chain of PCBP2 (Q15366 whole entry): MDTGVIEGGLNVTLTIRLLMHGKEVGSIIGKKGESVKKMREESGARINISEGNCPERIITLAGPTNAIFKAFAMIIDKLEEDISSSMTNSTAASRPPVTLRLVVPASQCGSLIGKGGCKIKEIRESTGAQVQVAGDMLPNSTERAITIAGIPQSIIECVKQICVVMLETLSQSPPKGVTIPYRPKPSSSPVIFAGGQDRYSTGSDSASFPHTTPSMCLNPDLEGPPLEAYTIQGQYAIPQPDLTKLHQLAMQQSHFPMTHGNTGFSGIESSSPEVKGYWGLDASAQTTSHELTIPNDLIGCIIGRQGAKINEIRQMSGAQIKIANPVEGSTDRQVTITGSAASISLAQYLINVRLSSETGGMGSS

Consider AAUAAA, for which the EC50 in the series with HNRNPR came to 2.84 µM; with P4HA2 it was 0.0389 µM; with SF3B2 it was 1.18 µM.

Regarding CUGUCCU, the EC50 amounted to 0.259 µM with MRPL1, 0.104 µM with MRPL43 and 3.39 µM with PCBP2.

Turning to UAUUUAU, the values for the concentration giving a half-maximal response (EC50) with HNRNPA0 and in the series with PRPF31 were 4.86 µM and 5.84 µM, respectively.
